Assay: label from the status in PepcDB records

Sequence	protein production
MWALLLRFYIALPLSVIVLLVLKTSFPTHKQALHSYFAGSFSLIGSQIFTYAATQYLSSGMIALMFGLAPIMAGLIGRFAFGQHLFKLQWLGMAVAVCGLAIICLNGSNQHVHPFGIVLMLVSVFVYSFSIFWVKKVNAKIQPMAQATGSILVSSILASCLIPFIWQYAPTHLPQAKSLFALIYTVLMASLVAMFCYFKLVQNIKPTTLSLTTVITPMLAMIIGAVLNHEQLSIMVFVGAFIILFGLFLYFYKDIQANRNFAQHIKSK	failed
MSLTADTKRPLTLRDVSEASGVSEMTVSRVLRNRGDVSDATRARVLAAAKELGYVPNKIAGALASNRVNLVAVIIPSLSNMVFPEVLTGINQVLEDTELQPVVGVTDYLPEKEEKVLYEMLSWRPSGVIIAGLEHSEAARAMLDAAGIPVVEIMDSDGKPVDAMVGISHRRAGREMAQAILKAGYRRIGFMGTKMPLDYRARKRFEGFTEVLGKNGVEIEDREFYSGGSALAKGREMTQAMLERSPDLDFLYYSNDMIAAGGLLYLLEQGIDIPGQIGLAGFNNVELLQGLPRKLATMDACRLEIGRKAAEIIAKRLEDPEAEIETRITLEPKISYGDTLKREGHHHHHH	not failed
MMNTTTLDRYFDLFDASRTDEKAFDDLISLFSDEITFVLNGQEQHGIDAWKQFVRMVFTANQDIKHMYAGWVPSETGDTMETRWAVCGKSADGSVFTQDGTDIARLNADGKIVYLANVPDDTAMFNQYND	not failed
MTIRAGSLDRRTLLRGAIATAAMGSFAVACSSPSSEDKESDSGPKGEKSANNPFGAAANSTVEAAIFDGGYGTDYVDYANQVLGSQVKGLKVQVKPVVDIAPQLQPRFVGGNPPDLIDNSGEDQIGFLGILDQLEELDDLFEASTYEGKKIADIVYPGVKDPGTFKDKFVALNYVMTVYGVWYSKTLFEENGWTPPKTWDEALDLGQEAKKKGKYLFVHGKEAATYYRTLLIDSAIKEGGDEVRLALENLEKGCWSHPAVQGVIKVMETMVKQKMFVPGGSGTQFQKAQAIWSNDQKALLYPSGGWIENEMKKATKADFQMTGIPSMTLTDKPALPYEALRAAAGEPFIVPKQGKNPAGGKEVLRAMLSEKAAANFSKTKLAPTIVKGTVPADGYGSTALVSQTKMLEAAGTNIFNYMFVETYGLNTDQLVPWNSFLAGDLDGKGLTSALQKISDKVREDDSVDKVKVS	failed
MNTFGIFLTISAYTFFSWAYSKKKTPILNPVLLSILLIALILKVGNISYEKYMESARFLSFLLGPAVVSLAIPLYKQINIVKEYKKEIATGIITGGTTAILSAVYILKAFNSPEILQRTIAPKSVTTAIAMGVSEKIGGIPELTAVLVILTGILGNALAPELLDFFKIKDRVARGLATGVSSHGLGTARIILEDELSGAVSGLAMALNGVYTAFLLPLIIELIV	failed
MQPDTQEIVVDEVFPHAPETIWKTLTTAELMGRWLMMPAGFEPIEGKRFTYQTTPAGDWDGTIHCQVLEVKPNERLTYAWKGGHAGNTGYGSPLDTVVTFILSRAGNGTRLRLVHSGFVLPKNETAYRKMGEGWKKVVKNIGALAGGEDLEHHHHHH	failed
MASGSTQVKYLGIYQKMKQQILDGEYKINEKIPSSPILAEEFGVSVLTIKKALDLLVRDGYIIRRRGSGTVVQDWRQQEKARMIQTLTGTKAVYGSEVESKIIEFTIVGADEIIAEKLGISVGDFVYKIIRLRIIHSIPTIMEHTWMPIAVIPGVEASVLEESIYSYIQNKLGLKVGTSVVRVKGIRPDDKEKQFMNLTNQDFLMRVEQVAYLTDGRTFEYSYADHLPETFEFETVITAKSYKEA	failed
DLEPRERLHRILEQVLVFAGAMVAAAYTHSEDGDQLCLAESAGVPRSLYGLRDSYPLTGGTPAADVHRSGQPLWLTPEDLGRCADARRLPNGDFSLAVLPLGDGGCLAAVSERAGGFDADDRECLRLLAGSVA	failed
MKASSLAFSLLSAAFYLLWTPSTGLKTLNLGSCVIATNLQEIRNGFSEIRGSVQAKDGNIDIRILRRTESLQDTKPANRCCLLRHLLRLYLDRVFKNYQTPDHYTLRKISSLANSFLTIKKDLRLCHAHMTCHCGEEAMKKYSQILSHFEKLEPQAAVVKALGELDILLQWMEETE	failed
MVIINTAAYHFVSITQPQTLADQIRAHGEIAGLKGTVLIANEGINLFLAGEKEAINAFYAWLCADVRFAALHVKYSVSAYKPFARFKVKVRPEIISFRRGDISPLQVRAPGVSAHTLRDWLRRGCDDNGRRLVMLDARNQQEIAYGTFSGAMTLPITKFTGFPGALAHYRDLLSDATVVSFCTGGIRCEKAVLWMRADGMDNVLQLEGGILGYFEQVGGEGYDGRCFVFDKRVALDPQLRPLYDMRVVASFARSEIS	failed
MARIRIEAPGTIVYETLMDVRIGDINYANHLGNDALLRIAQEARLRLFRDWGYVDELHIDGVGIVVADAAICYLSEAFLGDVLRILVGTADIHRKGLDFIYQVIDDNSGREVARLKTGIVFFDYPARQVALMPESFSAKLGQLEHHHHHH	not failed
KNRLGTKALNFTYTLDSGVKGTLYQFPAEYTLLFINNPGCHACAEMIEGLKASPVINGFTAAKKLKVLSIYPDEELDEWKKHRNDFAKEWTNGYDKELVIKNKNLYDLRAIPTLYLLDKNKTVLLKDATLQKVEQYLAE	not failed
MSVTLVNNENNERYEFETIESTRGPKAVDFSKLFETTGFFSYDPGYSSTAGCQSKISYVNGKKGELYYRGHRIEDLVAKYKYVDVCKLLLTGELPKNQDESLEFELELRHRSFVHESLLNMFSAFPSNAHPMAKLSSGVSILSTLYSTHQNMHTEEDYQTMARRIVAKIPTLAAICYRNEVGAPIIYPDIARSYVENILFMLRGYPYSRLKHTTQGEVEITPLEVEAFDKILTLHADHSQNASSTTVRNVASTGVHPYAAISAGISALWGHLHGGANEKVLLQLEEIGDVKNVDKYIARVKDKNDNFKLMGFGHRVYKSYDPRAKILKGLKDELHQKGVKMDERLSEIAAKVEEIALKDEYFIERNLYPNVDFYSGTILRALKIPVRFFTPVFVIGRTVGWCAQLLEHVKSPQARITRPRQVYVGD	failed
SSPQHLLVGGSGWNKIAIINKDTKEIVWEYPLEKGWECNSVAATKAGEILFSYSKGAKMITRDGRELWNIAAPAGCEMQTARILPDGNALVAWCGHPSTILEVNMKGEVLSKTEFETGIERPHAQFRQINKNKKGNYLVPLFATSEVREIAPNGQLLNSVKLSGTPFSSAFLDNGDCLVACGDAHCFVQLNLESNRIVRRVNANDIEGVQLFFVAQLFPLQNGGLYICNWQGHDREAGKGKHPQLVEIDSEGKVVWQLNDKVKFGMISTICPIRE	not failed
MPRPDNVPVYTMRQLAAFVAVAETGTISGAAERMHLSQSALSAAVTDLEKALKAQLCVRRRARGVQLTPTGEAVLSRARALLQQAGELQSDASGEGGV	failed
PASGVRPAEAADLAAVAAYDSACSPADRPRFLEHWLAGPGHRTFVRLVDGRLTGYGVVRPALDSLRVGPLFADSAEDARALFTALTADAGEIAMDIPETNTAAVALAREAGLTPSFETARMYTGPVRPFAADRVYGITSLELG	failed
MLNPRIKWSSRKFGNLFDVILHLFFSDTFLFKEIPVDVDQLLVTWDGKLVSCLPTGTRGNYLCKVSSPPGVHRVSVEVIYGGRRIVKTENVPLIDFDISLSLDKNSLLVKLLGYSDPDTISVKLNGTPLTPSRIGPGEYRVDITERGVAEVEVCISGICKRSIINVEPHLSLSDWDPSVWVGRNLYGYQVMEFLGEGGFSYVMKASSPGGVVALKIPKLTQSPASGLTRNVINVLDDLFKEQSALLELSDSPYLVKLVGVHLDRDSVRRALTEPRYYLEYPPMIVMEFMAGGSVSRLVKDDVQFYSDNWKTAVFMIISRISSGLLKIHEKGYVHCDVKPSNILLDREPPPTAGELYERMKRREVNPKLADLGSAVKIGGVPPGVTLEYSSLEQVTSTRYGGVNPRDDVYSLGATIYYLLTKRYLNSPMIPFMEKALGGGGLDNSVYALRDYSTLEAVGLDSKIVRFIKDMTSENRDKRPSSLEVFNFFTSLVN	failed
MQGQNQQQAYDRGITIFSPDGRLYQVEYAREAVKRGTASIGVRTSDGVVLAVDKRIRSPLMERSSVEKIHKADDHIGIASAGHVADARQLIDFARRQAQVNQLRYGEPVGVETLTKEITDYIQQYTQVGGARPFGVALIIGGIVNGEPRLFETDPSGTPYEWKALAVGADRGDIRDYLEEHYDEGMDLDEGVDLALAALASVNDDELSPEGIGVATVDVETETFGQLTDEEKEAHLAEADLLDTGEDADDEAEDEDATEE	failed
MERMMNKRILKGTLTAIAALMSAHAFAGQEVTVYTAFETDLLAKYKSAFEKENPDIEIKWVRDSTGIMTAKLLAEKDNPRAEVVWGLAGSSMALLKDQGVLKPYTPKGANELRANLNDPQAQQAWYGNDAFFNAVCFNEAVAKQLNLPKPQSWEDLTNPVYKGHIAMPNPASSGTGYMQVSAWLQNMGEDKAWDYMQRLDQNIAHYTHSGSKPCVQAGMGEVAIGISMATRGAKLKTQGAPLDVIVPNGIGWESEAVGLVKESDAAKRVVDWSVSKAANELYIESYPIVGHQDVSKQVPNYPNVEKVMAKMDFTQMGVDRARVLQTWSEKFDAKSEPKS	failed
MKRFQKQILLRRILQMDYKQIAKEVIEALGGRENVNSVAHCATRLRVMVKDENKINKEKAENIEKVQGAFFNSGQYQMIFGTGTVNKIYDEVVAQGLPTASKDEQKAEAAKQGNWFQRAIRSFGDVFVPLLPAIVATGLFMGIRGAINNDTVLALFGTTSKAFAATDFYTYTVVLTDTAFAFFPALICWSAFNVFGGSPLLGLVLGLMMVNNALPNAWDVVSGAAKPIYFFDFIPVVGYQNSVLPAFFVGLIGAKFEQWVRKWVPDVLDLLLRPLVVFAVMSALALFIIGPVFHTVESYVLAGTEWILALPFGLAGLVLGGIHQIIVVTGVHHVFNLLEANLISNTGKDPLNAIITAAMTAQAGATLAVGVKTKDSKLKALAFPASLSAVLGITEPAIFGVNLRFGKPFIMGLIAGAAGGWLASILNLAGTGFGVTIVPGTLLYLNGQVLKYVIMVLVTLALGFALTWIFGYKEEEVEAQTEVVAEDIASAGSAPVALQAETIAAPLKGEVVALENVNDPVFSSGAMGKGAAIKPSGNRVVAPFDGEVQIAFPTGHAYGLKSDKGAEVLIHIGIDTVSLDGKGFDAKVQANQRVKKGDVLATFDSSVITEAGLDDTTMVIVTNTADYEDVSLVATGSVAEGGDFIAVK	failed
MKELIRKLTEAFGPSGREEEVRSIILEELEGHIDGHRIDGLGNLIVWKGSGEKKVILDAHIDEIGVVVTNVDDKGFLTIEPVGGVSPYMLLGKRIRFENGTIGVVGMEGETTEERQENVRKLSFDKLFIDIGANSREEAQKMCPIGSFGVYDSGFVEVSGKYVSKAMDDRIGCAVIVEVFKRIKPAVTLYGVFSVQEEVGLVGASVAGYGVPADEAIAIDVTDSADTPKAIKRHAMRLSGGPALKVKDRASISSKRILENLIEIAEKFDIKYQMEVLTFGGTNAMGYQRTREGIPSATVSIPTRYVHSPSEMIAPDDVEATVDLLIRYLGA	not failed
MNYDMSSYFEDPEFKEALAKYEGMVENHTPAYFEADELIDIAEYYTLKGRHKDADKAIDLTLQLHPENTDALVFRIRSLMLQNKKEEAKVVAQLIANSTDRECRFLQADMLMEEDRIEEAEEIFKQLVMDEEYEVDTLLDIIQDYTNANQEEYAGQWVDCLFAHSDMQTLPKTNQRLRDVLCDYYSTFNKPDLAIPYLNMTLNEYPYSIEHWNELGKCHLQQCQYEEANEALDFALAIDDENTDSLTLKAFGYHQAGNLKESCDYYLRLANVSKNKTKAYLALAQIYLEMRDHASAISYIEKLINRKSGLTDYELAELYSDTALCHAYLGHTENGYKYINQALELNEHDAEIRIAAGRFFTIEAQKSDISEEEQENNLRNAEHQFTRALEFTPKEERFDVLFKIGSLYFDEHNFEYANQYFELINKEFPEDADATYFFLAYGYYHQQESASFMHYLAKIRKEIPDMYATMGTGDTILMTDTYFNEALRAIKEDVSTGKINLNKYL	failed

Reference: a protein production outcome set (Wang et al. 2014)
